Results taken from the domain aggregation screens of Martell et al. (2025).

Test: soluble fraction after stress (log2 fold change); higher = more stays soluble; pooled small domains, quantitative proteomics
Conditions: stress: pH 4
Method in brief: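 Values are on a log2 scale, where higher means more of the domain stayed soluble after pH 4 stress. They are fold changes in the soluble amount of each domain from pooled custom libraries, measured by high-throughput quantitative proteomics. The fold change is taken to reflect aggregation propensity.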
For “HMSMFSEILRTLRKAKGLTQRELAGHLGVTQQMVAKWEKGQSTPGPDQLTRMAELLEVSTDTLLGR”, the “soluble fraction (log2)” value was -0.104.
With “HMLIELKIPSEWAGKSLHTLNLRQNYNVNVIGFRDEKSGKLNTHFDPSKKLPDEGIILVVADNRTLEKF” the “soluble fraction (log2)” value was -0.451.
In the case of “HMAHLNYQTVDINALIRHSLQLVSQDAQSRGIALQFTPRPELTTISADPDRLNQVLLNLYLNAMQD”, the “soluble fraction (log2)” value is reported as -0.205.
With “HMPPENVSVRREQIAEDKKTVYNVWVTKGNKTVLYSKVVYAWGGVYFFRDLNTSISENMYKQADAGLVN” the “soluble fraction (log2)” value was -0.0222.
For “HMTTIAQMTGPQRAAVILLVLGEDHGRTIWQEFDDDEIRIITRAMAELGTVDADEVERLMLDFVGKLSS”, the “soluble fraction (log2)” value was -1.75.
For “HMFSLDMDRLVRPGFMASGNVTFSDGVTGKWALDQMGRLALETAQKGYQPSPADVQAFQRELQQQLQRQG”, the “soluble fraction (log2)” value was -0.178.
For “HMKSILDDVVGLGPVRKKALLSAAGGFRKLRDMDVDEVIGLGAVPEEVAREVVTVLAQYNGERDRVEGL”, the “soluble fraction (log2)” value was 0.104.
In the case of “HMPTGRVVIPLNRLTASDVARILDEAYGRDHNFEVVKPSRLAKGIIVIGPKSEIDGIKELLAH”, the “soluble fraction (log2)” value is reported as -0.173.
With “HMVANDQILNQYGISDREAEIIGLLIEGLSNQQIAKQLYISPNTVKTHIKNIYAKVGVNNRLQLFSLLK” the “soluble fraction (log2)” value was -0.549.
For “HMVAGPDEPLSDREQGVLDLLAEGLSNKAISKQLGISVATVKSHLSNIYGKLQAENRMQAVARARELGLM”, the “soluble fraction (log2)” value was -0.386.
For “HMDMSVDQFNQGIRGSELYQQFIHGRGLQQPDGKTREWTDADRNAWRRTLEASGVRIPDGMKIDNAGNLNE”, the “soluble fraction (log2)” value was -0.052.
In the case of “HMYPEETVNKILDVSMQLFLEKGYEHTSIQDIVNHLGGLSKGAIYHHFKSKEDILDGVMNKLYQNN”, the “soluble fraction (log2)” value is reported as -0.941.
For “HMSGITDIITDGKATSRPVVVTDGGHIRVLSPYTSFAIYTLGGMSLPTESRLEPGIYIVVVDSNAVKVAV”, the “soluble fraction (log2)” value was -0.408.
For “HMQSLIVPVPKPEDDPVYKDGIKQDPVEVVSIWLGRDYLNMILNLKVSTGKGHTFGIVEDVS”, the “soluble fraction (log2)” value was -0.383.
In the case of “HMQISDSSLIAKTVATVILENPEAVSDYLGGKHSVVRFMVGQIMKKTQGKANPKMATEMLETALNDL”, the “soluble fraction (log2)” value is reported as 0.352.
With “HMGAGLKIGNDHEYANYLEYKVSVEKYAPGAILGEIKQKGIQFNTTISKTTFYRYITDGVFLTITNADLPV” the “soluble fraction (log2)” value was -0.138.
With “HMRLPNGYGSITKLSGKRRKPFMVRITTGYDNEGKQLMSVLGYYATRTEALAVLAEYNKNPYNPI” the “soluble fraction (log2)” value was 0.109.
With “HMAPPPPEGYIHRWIRESVMGFDDKKNLSARIREGFELVRAEEYPDYEAPTVMDGKHAGVIANGGLLLARF” the “soluble fraction (log2)” value was -0.236.
With “HMNVEGEVVVPNVIGRTMKDVAVILSDLGLRMEAEGTGVAKSSQPQHGTSVKRGTVVQVRFEPLSVN” the “soluble fraction (log2)” value was -0.201.
In the case of “HMETINERVNSIIEREGHTVATFAKKIGVPWTTIKNIVSGRNAPSYDIMVKIINAVDWVDANYLVMG”, the “soluble fraction (log2)” value is reported as -1.16.
With “HMSDNLTIVRAVYSGLSQRQAAATYHVSRNTVSLLLRHARNRGWLTLEDLAQLDNAAFSKSL” the “soluble fraction (log2)” value was 0.354.
For “HMYSDDNKSILNLIDNLFNKENIKIDINAKKLLSNYLGVDRLVTKGEIEKAILFAGTKKHLSIEDISAFLS”, the “soluble fraction (log2)” value was -0.992.
With “HMDAPKTGSLVVSKAVNYGSWSGFTFRLHGTSDKGNSVDVTATTGSDGKAYFKDIEIGTYTLEEVN” the “soluble fraction (log2)” value was -1.19.
For “HMREEMYGLIGFITTSEVTDTFGQMEIKLENEPEMRINVRTNPGESLARGDAAKIISFNNSNGTFLVELTK”, the “soluble fraction (log2)” value was -0.564.
In the case of “HMKELTELIEKIKLRRLELGLSYQELSDLTGINKSTLQRYETGFIKKVPINQVQIIAKALNVTPGYLMG”, the “soluble fraction (log2)” value is reported as -0.718.
For “HMAVSPEEQKKRIIELFRNRNEVSFKEIFDLPTKGHFVITLLAVLDLARQQIVIMEQLENEGIIKFTKGA”, the “soluble fraction (log2)” value was -0.232.
With “HMSIEIIEITSNSSPKNLSEIIDIDATQIVADLMGLGIMKAIDTPLENSEIEQLLEKYNLIAEFVE” the “soluble fraction (log2)” value was -2.51.
In the case of “HMFIEHSKYKLSFKYNQLGKISNVINSNNGIIMDKHFDQNITLLAKLTENTFQEIIKHFPTIIIKRL”, the “soluble fraction (log2)” value is reported as -0.539.
In the case of “HMGKPVTMELLIPYSQGSLVHRISEAGEVAKTEYQNDGTYMQVTFTPSAKDHALMQEVASYRI”, the “soluble fraction (log2)” value is reported as 0.0901.
With “HMNSKQELAYQTIRARIVDGSYGPGYRIVIDEVARELGVSPIPVREAVRRLEAEGLITYTRHAGARVVA” the “soluble fraction (log2)” value was -0.273.
In the case of “HMRTANREKRIEASVKMMKAGYPVGYIIARVFMYEGWEEDYRQLLIYLSEKIPKDVSNPITFEVIS”, the “soluble fraction (log2)” value is reported as -0.317.
In the case of “HMEILNYVVSDGQSGIRIDRYLSDSNEDLSRSYIQKLLKEQKVTVQGTFVKANYKVQAGDVITVEVPDMA”, the “soluble fraction (log2)” value is reported as 0.238.
For “HMANTAKVNVDTANLRETADENSKILKQLSLNDNLEVVEETGDWYKVKNSNVTGYVRKDLVTVEN”, the “soluble fraction (log2)” value was 0.244.
With “HMVEFLMESTNGMYGIVKEGSSYYVQKGINESSLDYIGGMFMKDKNRFSSYSTALKRLELISGQET” the “soluble fraction (log2)” value was -0.497.
For “HMTSLAGIERFLASGAIAGVGEAMAHRLVQKFGKETLEIIEKKPSRLTEVAGVGKKTAAKIHASYMEK”, the “soluble fraction (log2)” value was 0.0893.
In the case of “HMMQEIKLEVINNEELRIDNYINLAGIGLSRSYIQKLIKDGVILVNGKEVKSSYKVSLGDIISVQIPDPG”, the “soluble fraction (log2)” value is reported as -0.209.
In the case of “HMVEELDVQFIKLTVQGDHPWKNKKIRELSIPWDLLFVLIIRGDKSIIPNGKTTIKDGDIVVVSAPEYRG”, the “soluble fraction (log2)” value is reported as -1.5.
